Laboratory results as given in patent US20260216242A1, “ALPP-SPECIFIC VARIANT ANTIGEN BINDING MOLECULES” (ALMAC DISCOVERY LIMITED, priority 2022, published 2026).

T1: ALPI His homodimer (Homo sapiens, UniProt P09923)
T1 sequence (P09923 with tags, fused parts or gaps): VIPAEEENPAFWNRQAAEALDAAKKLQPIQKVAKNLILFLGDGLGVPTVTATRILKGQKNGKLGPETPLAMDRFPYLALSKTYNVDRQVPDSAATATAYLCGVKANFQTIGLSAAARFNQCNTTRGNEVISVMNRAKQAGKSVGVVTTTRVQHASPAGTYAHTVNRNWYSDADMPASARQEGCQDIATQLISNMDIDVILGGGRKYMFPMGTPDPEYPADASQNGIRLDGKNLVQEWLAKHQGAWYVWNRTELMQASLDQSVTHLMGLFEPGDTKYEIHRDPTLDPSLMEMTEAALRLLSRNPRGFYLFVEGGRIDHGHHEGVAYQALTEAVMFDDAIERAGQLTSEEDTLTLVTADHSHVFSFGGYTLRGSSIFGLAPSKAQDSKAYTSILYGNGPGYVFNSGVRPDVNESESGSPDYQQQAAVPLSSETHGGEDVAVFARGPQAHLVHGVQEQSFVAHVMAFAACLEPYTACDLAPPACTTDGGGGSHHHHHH


Assays:
[1] = target: T1, ALPI His homodimer; assay: ELISA binding to ALPI; settings: 500 ng purified VHH
Procedure: ELISA was used to test the binding and specificity of the VHHs. ALPP CysHis (SEQ ID NO: 263), ALPI His homodimer (SEQ ID NO: 264) or BSA (Thermo Fisher) were coated onto plates and 500 ng of each purified VHH added. Anti-Llama—HRP antibody was used for detection.

[2] = target: T2, ALPP (Homo sapiens, UniProt P05187); assay: Epitope binning by BLI competition assay; format: binding; settings: BLI competition on immobilised ALPP
Procedure: To determine epitope cross reactivity BLI competition assays were conducted. AR2G sensors were used and ALPP immobilised as above. ALPP sensors were then dipped into a well containing a saturating concentration of the initial binder for ten minutes to get an association curve. The sensor was then dipped into a well containing the same concentration of initial binder plus 20 nM of a secondary binding.
An increase in the association curve was indicative that the second VHH bound to a distinct epitope from the initial binder. Monomers with identical CDR3s were grouped as likely to be in the same epitope bin and only one from each group used in the epitope binning experiment.

[3] = target: T2, ALPP; assay: BLI binding kinetics, human ALPP immobilised on AR2G sensors (KD / KD apparent); settings: for hALPP Ka / hALPP Kd: VHH domains
Procedure: Binding kinetics were determined using the Biolayer Interferometry (BLI) Octet K2 system (Sartorius). Human ALPP, ALPPL2, ALPL (each fused with a cysteine stabilised leucine zipper) and ALPI, (SEQ ID NO: 265, SEQ ID NO: 266 and SEQ ID NO: 267 and SEQ ID NO: 264 respectively) were immobilised in sodium acetate pH5 buffer to AR2G sensors using amine coupling. All assays were conducted in PBS with a plate temperature of 25° C. Ka (M^−1s^−1), Kd (s^−1) and KD (nM) values were determined using Octet Data Analysis High Throughput software (ForteBio) for Biolayer Interferometry.
(§1) Binding kinetics were determined using the Biolayer Interferometry (BLI) Octet K2 or R4 system (Sartorius). Human ALPP, ALPPL2 and ALPL all fused with a disulphide stabilised leucine zipper (SEQ ID NO: 265, SEQ ID NO: 266, and SEQ ID NO: 267) and ALPI His (SEQ ID NO: 264) were used in BLI experiments. For KD apparent measurements, the ALPP proteins were immobilised in sodium acetate pH5 buffer to AR2G sensors using amine coupling. To measure 1:1 interactions, AHC biosensors were used to immobilise Fc-fused proteins. All assays were conducted in HBS-EP with a plate temperature of 25° C. Ka (M^−1s^−1), Kd (s^−1) and KD (nM) values were determined using Octet Data Analysis High Throughput software (Sartorius) for Biolayer Interferometry.
as §1, with “NO:264)” for “NO: 264)”

[4] = Thermal stability (Protein Thermal Shift assay); format: physicochemical; settings: VHH domains, first derivative analysis
Procedure: Thermal stability assays used Applied Biosystems StepOne Real Time PCR system with the Protein Thermal Shift™ dye kit (Thermo Fisher). The assay mix was set up so that the protein was at a final concentration of 20 µM in 20 μL. 5 μL of Thermal Shift™ buffer was added alongside 2.5 μL 8× Thermal Shift™ Dye. Assays were run using the StepOne software and data analysed using Protein Thermal Shift™ software. All data are from first derivative analysis.

T2 sequence (P05187 with tags, fused parts or gaps): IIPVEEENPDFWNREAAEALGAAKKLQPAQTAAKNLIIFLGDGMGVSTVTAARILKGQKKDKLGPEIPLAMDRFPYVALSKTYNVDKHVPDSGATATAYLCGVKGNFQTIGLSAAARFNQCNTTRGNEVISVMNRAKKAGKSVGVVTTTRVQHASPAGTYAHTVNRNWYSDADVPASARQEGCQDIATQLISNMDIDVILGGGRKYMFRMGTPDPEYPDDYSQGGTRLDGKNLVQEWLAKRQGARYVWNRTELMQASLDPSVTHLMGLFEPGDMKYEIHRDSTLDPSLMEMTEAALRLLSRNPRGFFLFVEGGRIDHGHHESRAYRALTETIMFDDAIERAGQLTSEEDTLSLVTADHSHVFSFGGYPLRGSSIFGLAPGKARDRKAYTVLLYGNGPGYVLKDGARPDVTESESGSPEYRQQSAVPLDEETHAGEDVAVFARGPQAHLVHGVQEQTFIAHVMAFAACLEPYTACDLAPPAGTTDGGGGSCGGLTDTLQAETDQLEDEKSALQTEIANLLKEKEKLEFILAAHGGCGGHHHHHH

Molecule | ELISA hALPI [1] | epitope bin [2] | hALPP Ka [3] [M⁻¹ s⁻¹] | hALPP Kd [3] [s⁻¹] | Tm [4] [°C] | Kd ([3]; VHH domains (His-tagged monomers), PBS, 25° C., read-out: hALPP KD) [nM]
B11: ALPP targeting VHH domain, SEQ ID NO: 22 (protein) VHH: QVHLVESGGGSVQAGGSLRLSCAASGPSLSNYAMGWFRQAPGKEREFVAGISWGGGRTSYTDSVKGRFTISRDNAKNTVYLQMNNLKPEDTGVYYCAGRYGRGRNVEYEYDYWGQGTQVTVSS | No Binding | one | 213000 | 0.000017 | 77.4 | –
G03: ALPP targeting VHH domain, SEQ ID NO: 38 (protein) VHH: QVQLVESGGGTAQAGGSLRLACAASGRSVTMGWLGWVPRAERDDLEFITWFNWGTYYANSVNGRFTISTDNADNTVYPQMNRLKPENPAVYYCASFTGYRPLINRLNDVSDCGHGALVAVSS | No Binding | one | 47400 | <1e-07 | 74.0 | < 0.01
